Data: patent publication US20100255578A1

Assays:
[1] = target: H296-H296 (modified fibronectin fragment in which two H-296's are connected); experiment: ELISA as in Example 34; H296-H296 coated at 3.125 ug/mL in PBS; HRP-labeled FNH3-8
H271-H296 = experiment: ELISA; H271-H296 coated at 12 ug/mL; HRP-labeled FNH3-8, ABTS; blank subtracted
Chain of H271-H296 (chain, as listed by the source limits assumed): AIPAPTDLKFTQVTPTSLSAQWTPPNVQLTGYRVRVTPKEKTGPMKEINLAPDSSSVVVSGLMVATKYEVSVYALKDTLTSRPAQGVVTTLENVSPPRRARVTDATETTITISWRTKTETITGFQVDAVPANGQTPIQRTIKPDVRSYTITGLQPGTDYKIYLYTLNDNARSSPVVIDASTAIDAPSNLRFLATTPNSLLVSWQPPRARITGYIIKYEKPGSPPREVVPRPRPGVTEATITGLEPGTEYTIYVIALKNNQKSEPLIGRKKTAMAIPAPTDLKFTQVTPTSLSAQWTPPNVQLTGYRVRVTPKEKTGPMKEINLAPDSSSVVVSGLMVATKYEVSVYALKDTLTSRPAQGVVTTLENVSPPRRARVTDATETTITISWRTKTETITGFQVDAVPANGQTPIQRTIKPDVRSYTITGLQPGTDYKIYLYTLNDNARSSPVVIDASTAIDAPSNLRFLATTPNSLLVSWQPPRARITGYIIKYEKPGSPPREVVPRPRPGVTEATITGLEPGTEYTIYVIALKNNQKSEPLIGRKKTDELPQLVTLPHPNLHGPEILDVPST

**Q.** With “FNH3-8 antibody (manufactured by TAKARA BIO INC.) labeled with HRP” as the substance, how does the absorbance at 405 nm [1] read?
**A.** 1.01

**Q.** What about the 405 nm (Found Value - Blank) (H271-H296) of the same substance?
**A.** 0.639
